This passage reports killing EC50; HIV-infected CEM-NKr-CCR5-LucR CD4 T cells; PBMC donor 4176; virus WITO and killing EC50; HIV-infected CEM-NKr-CCR5-LucR CD4 T cells; PBMC donor 4288; virus WITO results from US20180371086A1.

The assay deals with HIV-1 Env gp120 of virus WITO, on infected cells (HIV-1). The assay is described as follows: cell-based or functional assay.

Bounds are passed on as bounds.

As for PGT-121 (antibody), the killing EC50; HIV-infected CEM-NKr-CCR5-LucR CD4 T cells; PBMC donor 4176; virus WITO is above 100 µg/mL and the killing EC50; HIV-infected CEM-NKr-CCR5-LucR CD4 T cells; PBMC donor 4288; virus WITO is above 100 µg/mL.
